Data reported in the DeepSol protein solubility set.

Assay: soluble on expression in E. coli; label from the status in PepcDB or PDB records

Sequence	soluble on expression in E. coli
MSLANADTYQPSYSTAGFYQLSNTGRTVYNMNPAWRFYKGNIEGAEQPRFNDKDWNIVSLPDGIEYLPTEASGCINYQGEIWYRKHFTPKESWKGKQQFLHFEAIMGKSKIWVNGKLLKEHFGGFLPVIVDVTSSLKYGEDNVITVWADNSDDPSYPPGKPQDALDFAYFGGIYRDCWMIVHNKVFITDPNYENETAGGGLFVSFDKVSEQSAQLKLDAHIRNTSGKSFSGKIIYELYDRDDKRVLSKETGLSVSKDLAKQISCKVTVETPHLWSPDSPYLYKLHIYIKDKAGNTIDGYYRRIGIRSIEFKGKDGFWLNGKPYPYPLMGANRHQDFAVIGNALPNSLHWRDAKKLRDAGMRVIRNAHYPQDPAFMDACDELGLFVIVNTPGWQFWNDQPIFAQRVYSDIRNMVRRDRNHPSVWMWEPILNETWYPADFAKNVVDILNEEYPYPYCYAGCDVTARGHEYFPIHFTHPMNGGGGAFNTENLDPKISYFTREWGDNVDDWNSHNSPSRVNRGWGEVPMLIQAQGYAKNDYQLTSYDGLYRTSRQHMGGCLWHSFDHQRGYHPDPFYGGIMDAFRQPKLSYYMFCSQRPAEPNKELIADEGHHHHHH	soluble
MRSVLQSEVSECGLASLAMVANAHGKHLTLSQLRQRFPSSLKGAKLTHLVHIAQQLGFSTRPLRLDMEDLGKLKLPCILHWDLNHFVVLAKVGTTKVTIYDPAIGKRKLSLNEVSKYFTGIALELTTTTE	not soluble
MGKYFGTDGVRGVANQELTPELAFKLGRYGGYVLAHNKGEKHPRVLVGRDTRVSGEMLESALIAGLISIGAEVMRLGIISTPGVAYLTRDMGAELGVMISASHNPVADNGIKFFGSDGFKLSDEQENEIEALLDQENPELPRPVGNDIVHYSDYFEGAQKYLSYLKSTVDVNFEGLKIALDGANGSTSSLAPFLFGDLEADTETIGCSPDGYNINEKCGSTHPEKLAEKVVETESDFGLAFDGDGDRIIAVDENGQIVDGDQIMFIIGQEMHKNQELNNDMIVSTVMSNLGFYKALEQEGIKSNKTKVGDRYVVEEMRRGNYNLGGEQSGHIVMMDYNTTGDGLLTGIQLASVIKMTGKSLSELAGQMKKYPQSLINVRVTDKYRVEENVDVKEVMTKVEVEMNGEGRILVRPSGTEPLVRVMVEAATDEDAERFAQQIADVVQDKMGLDK	not soluble
MKRFARKETIYLRGEEARTLYRLEEGLVRVVELLPDGRLITLRHVLPGDYFGEEALEGKAYRYTAEAMTEAVVQGLEPRAMDHEALHRVARNLARQMRRVQAYEAHLQTGELRARIARYLLFLADTPLSARDRQGIYVTVSHEEIADATASIRESVSKVLADLRREGLIATAYRRVYLLDLAALEREAGSALEAA	soluble
MSLALYLGNKRMNDMYYTIGQVAKMQHLTISQIRYYDKQGLFPFLQRNEKGDRIFNEEALKYLEMILCLKNTGMPIQKIKQFIDWSMEGDSTILHRLKLMKQQEANVLQLIQDTEKNLKKIQQKIAKYEDEISSANATTKEGHHHHHH	soluble
MAHHHHHHMCTTNLENLVVDSVTRTGNNNASNTFLGDVLLASNKESQNITQYHPGVSSKDQPDVCGDVRYSFADIADIIRGTDVWSKQSQQMLLQGYLEQTFGKIKDKFKGTEKYDSDSHHPQIL	not soluble
MTTIDLNCDLGESFGAYKMGNDDEILPFVSSINVACGFHAGDPSIMRQTVEKALEHNVAIGAHPGFPDLIGFGRRNMNVSASEVYDYVLYQTGALDAFVKAAGGKMQHVKPHGALYNMAASNPEIADAIAKAIYHINPSLLLYGLANSEAFIQAAEKYKVTLVQEAFADRTYKQDGTLTSRTEENALIKDEDEAIKQVLQMVKEGYVNSVNGEKVAVQAQTICLHGDGEKAVQFAERIYRTFKLNGISICAPKLEHHHHHH	soluble
MKLTWIKCMSKTERISDIDEPRLFEENGVEAHIAAFVMPLLKPLGFRLVRVKLLGLNGLTLQIMVERPDGSMTVEDCETVSRTVSPLLDVQNVIERKYHLEISSPGIDRPLVRKSDFFHWQGHIAKIETKIILEGRRKFRGTLTNITQDGFTLNTDKAAYGESMYISIPFDDIIDAHLVLTDELIRDALKKNKDLSQQFISEDNQKLSKQERNYKN	not soluble
MLVENLAHFSADTRFEADLVIIGGGPAGLTVARELRGAPLRVLIVESGLLEEAPQANELSTLESIGEPNAPHQIQKRIAFHGANCRSWTQDLQPYGVRCRALGGSTHAWAGKSAAFDDIDFQERAWVPHSGWPMDRSSLDPFLDRAADILNLGPNRYDDTLWTLLGISPPEPQLGTQGLRSFFWQFSRSRVDPLDIMRFGADFLRLEADNIRVLLNATATRLDLTQEGDGFRGLEIATNDGQRHTVHAKAAVIAGGGIENARLLLASTTIHANGVGNQYDLVGRFLMDHAGARIARFGGSNANQIMRRFGFYGLRNSGRTSMYMHGLAITPEMQEREHLLNSAIYFMPEHAADDPWDAVKRLLTGKSKRQVKDAMRAIAGAGLLGKGAAMKLLSSDRLPVAVKDFIVQTAIRYMPNVAADDFLSRGVPHKVTDVWIDAISEQQPDPDSRITLSEKTDRLGLPLARVNWKINADERRTIMRLGHIVESAFAQARLPKPILEPWVAEGAFNDAVIIDMAHSMGTTRMSASARSGVVDEQCQVHGVRDLYIAGSSIFPTSGHANPTLMIVAFAVRLADRIRQTLL	not soluble
MNSFYSQEELKKIGFLSVGKNVLISKKASIYNPGVISVGNNVRIDDFCILSGKVTIGSYSHIAAYTALYGGEVGIEMYDFANISSRTIVYAAIDDFSGNALMGPTIPNQYKNVKTGKVILKKHVIIGAHSIIFPNVVIGEGVAVGAMSMVKESLDDWYIYVGVPVRKIKA	soluble
MIEMKYILARATDEEIQKRGECGGAVTAIFKYMLDREIVDGVLTLERGDDIYDGIPVLLEDSDEIVSTCGSLHCAPTMFGDLISRYLNDMRLAVAVKPCDAMAIKELEKRHQIDPQRVYMIGLNCGGTLSPVSAREMIETFYEIDPDDVVREEIDKGKFIVELKDGSHKEISIDYLEEEGFGRRENCQRCELMVPRNADIACGNWGAEEGWTFIEVNTDRGEEIIEGARREGYLEVKEPPMKMIEIREKIENAMIKMARKFQDKYLEDEYPSLDDWDEYWKRCINCFACRDLCPICFCRECELEKDYLLESDEKAPDPLTFQGVRLSHMGFSCINCGQCEDVCPMDIPLARIYHRIQRKYRDRTGFTAGVSEELPPMYSGEKDLEHHHHHH	soluble
GNGRFLTLKPLPDSIIQESLEIQQGVNPFFIGRSEDCNCKIEDNRLSRVHCFIFKKRHAVGKSMYESPAQGLDDIWYCHTGTNVSYLNNNRMIQGTKFLLQDGDEIKIIWDKNNKFVIGFKVEINDTTGLFNEGLGMLQEQRVVLKQTAEEKDLVKKL	soluble
MNIVIAAVGGQGAVLTSKILGTLAQNLGKDVKVSEVHGMSQRGGSVVAYVKFGDKVYSPVVEKGTADIVLAFEMLEGARYVDYLKENGKLVVNTQRIDPMPVITGDMEYPADLGEKLEELNIGYIPVDALSLAKNAGTIKAVNVALIGVLAQNSNIKKEEWIKAIKDTVPEKFLELNLKAFELGYNL	not soluble
MGSDKIHHHHHHMIKLILSAPVPAMAVAFEHSFQNTENVEIIPGPFETIPEFDCMVSAANSFGLMDGGVDAAITAYFGPQLQERVQQHILREYLGEQPVGTAFVIETGNSKYPWLVHAPTMRVPLIIDGTDAVYNATRAALLAIFQHNKSAGEDRKIKSVVFPAMGAGCGQVSPGSVARQMKLAWDGFINCTTEINWQYASARQNAVFSTTAYCPSKALCPNARTEYIGFGDYRTYCKKSGNTCISPRHQVDDIYIGAHSHAVFLSPNSHGKHLKPEYLSGVKNDV	not soluble
MLNTIVLIRTDNFDKALTALADLVRYGGMKIRGTPRIIPPALSDWAFEQIVGEKPKKKVKAHVVAQIDLPASKAIGRIRDIHPPAHIIVIPVGSPVHKELLRLWGTFKELKGFHPPKEIKRLENIENEEDLELEHHHHHH	not soluble
MERRKDTEVALAQRDTILQTILDASPDSIGIFNENMVYQACNKPFVNALGISEVSDLIGKRLQDVIPVEMYTRLETSDLHALRQAEPVRYIDKVVSSDGHITWFDVVKSPFKDKASGTNGVLIMARDIS	not soluble
VMHSSLYTSVDDKLHGLSENPQAVIQLAINRATEEIKDLENARADASKVEIKPNVSSNTEVILFDKDFTQLLSGNRFLGLDKIKLEKKELGHIYQIQVFNSYGQEEIYRVILMETNISSVSTNIKYAAVLINTSQLEQASQKHEQ	not soluble
MHVTLVEINVHEDKVDEFIEVFRQNHLGSVQEEGNLRFDVLQDPEVNSRFYIYEAYKDEDTVAFHKTTPHYKTCVAKLESLMTGPRKKRLFNGLMP	not soluble
MSLRQGKIRVVLADDHTMFRQGLKEMLLTGGDIEVVGEAEDGRAALEEIRRHKPDVAILDVEMPEMDAREVMVRLPEASPHTRAVIVTVFAEARLARELVRLGARAYVTKNATLQELLAAVRSAARAAGGDNVLLAVPRGLIEGSGGPEGCELSERELEILLLVARGLSNRQVASELHLAEATVKRHLANVYAKLNVGSRGEAVRKALSKGWFTSRDVTEGHHHHHH	soluble
MSLGRAGRGIDSAVGILLCGSEDRAIHKFFRESAFPAEAQIHEILNVLSVNDGLTLRGIEQRTNLRYGQIEKALKLLVAENPSPVVYTEKLWRRTIVSFSPDHERINHLMNQRKSELADVESYITTKECKMQFLRRALDEPGAEHCGKCSSCLQHPLLSPDIDSGLLHAANLFIKHADLSLNLNKQVAAGAFTQYGFKGNLPASLQGSTGRILSRWGYSGWGKQVAQEKKTGRFSDELVEACAEMVRQRWNPHPEPTWVCCVPSLKHLDLVPDFESTSTWFLILPGDWRRNLAYLLLMPLKKSWTIHRRKCSKTVSTSVKISTGREGHHHHHH	not soluble
MGSDKIHHHHHHMIPEDVLAFFDLKQGRRPKAILNVLVGKMTVSALFWGLEYDILEYLNFWKTIDTTSFLENVDRAVEGGFLAKKDELIYLTEAGQQKQFSCTTPTPFIKKVRLDEAIDLLLLANQVISEFSFKNNRYIPVSDNLRINVILKNWFKQLKSRNHHTTDIVQKYTQGLDELLSQLQQHDADILLSYLPNHVDPGWTIDQLAQAFGISKFQMELKIRLIFSKIISDAVLTKIAPFVDLLNSTIKENVMPDSTYQTWQLIRQGKTVDEVARLKHVKTNTVKEHILMAAILDSNFPFDKFVRFNFEIGKHPTEVDFRSIQSQIADITFFDFRLIQIRKIKEQQNNNGNR	not soluble
MMKIVPPKPFFFEAGERAVLLLHGFTGNSADVRMLGRFLESKGYTCHAPIYKGHGVPPEELVHTGPDDWWQDVMNGYEFLKNKGYEKIAVAGLSLGGVFSLKLGYTVPIEGIVTMCAPMYIKSEETMYEGVLEYAREYKKREGKSEEQIEQEMEKFKQTPMKTLKALQELIADVRDHLDLIYAPTFVVQARHDEMINPDSANIIYNEIESPVKQIKWYEQSGHVITLDQEKDQLHEDIYAFLESLDW	soluble
MGFDASVLKSVLEQFVDEIGEESVDLIEDRPRFAHAVVVVTDDATGELCQASCIRQLDDVILHETSVANVTSEWMDEEIQRALRELTESRELLDTPRNSVFVEEKHEKQKTVTTTTTSTETSRNTSSRVEFPSMARRTRSTSAARRFN	not soluble
